From PMC11167044

Molecular target: PKM2 in SW480 cells (human (endogenous in SW480)) (UniProt P14618)
Assay: cross-linking; PKM2 cross-linked in SW480 cells expressing MYG1 variants, following ref. 37; SDS-PAGE and western blot

Sequence of PKM2 in SW480 cells, P14618 1-531 (enzyme; other documents disagree on this pair) (P14618 whole entry): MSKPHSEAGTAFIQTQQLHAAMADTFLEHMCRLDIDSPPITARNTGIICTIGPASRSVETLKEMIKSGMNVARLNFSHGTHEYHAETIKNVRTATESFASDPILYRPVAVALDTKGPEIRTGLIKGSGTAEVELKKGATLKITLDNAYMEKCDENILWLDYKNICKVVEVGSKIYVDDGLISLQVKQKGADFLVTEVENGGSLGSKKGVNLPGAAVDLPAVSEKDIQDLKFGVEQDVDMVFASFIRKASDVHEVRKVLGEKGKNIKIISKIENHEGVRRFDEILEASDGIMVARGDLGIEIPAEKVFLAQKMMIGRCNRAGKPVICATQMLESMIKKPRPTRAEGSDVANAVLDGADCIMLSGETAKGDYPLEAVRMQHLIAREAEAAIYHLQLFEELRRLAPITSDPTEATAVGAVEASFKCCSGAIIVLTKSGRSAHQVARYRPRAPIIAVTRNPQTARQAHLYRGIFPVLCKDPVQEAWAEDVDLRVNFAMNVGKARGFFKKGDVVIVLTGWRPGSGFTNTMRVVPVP

- stoichiometry N: 2
Substance: PKM2 in SW480 cells, P14618 1-531 (enzyme; other documents disagree on this pair)
